Experimental data from paper PMC4728125, “Molecular basis for allosteric specificity regulation in class Ia ribonucleotide reductase from Escherichia coli” (eLife, 2016).

Tests used:
[1] = molecular target: ribonucleotide reductase β2 (Escherichia coli) (UniProt P69924); conditions: cited from earlier work
[2] = molecular target: the molecule itself; test: crystal structure; α4β4 crystal form; 25 μM α2 and 50 μM met-β2 in 50 mM HEPES, 15 mM MgCl2, 1 mM EDTA, pH 7.6, with 10 mM dATP and 5 mM DTT; hanging drop, ~25°C; crystals soaked with CDP/dATP, UDP/dATP, ADP/dGTP or GDP/TTP; four structures at 2.97-3.40 Å

Sequence of ribonucleotide reductase β2 (Escherichia coli) (P69924 2-376): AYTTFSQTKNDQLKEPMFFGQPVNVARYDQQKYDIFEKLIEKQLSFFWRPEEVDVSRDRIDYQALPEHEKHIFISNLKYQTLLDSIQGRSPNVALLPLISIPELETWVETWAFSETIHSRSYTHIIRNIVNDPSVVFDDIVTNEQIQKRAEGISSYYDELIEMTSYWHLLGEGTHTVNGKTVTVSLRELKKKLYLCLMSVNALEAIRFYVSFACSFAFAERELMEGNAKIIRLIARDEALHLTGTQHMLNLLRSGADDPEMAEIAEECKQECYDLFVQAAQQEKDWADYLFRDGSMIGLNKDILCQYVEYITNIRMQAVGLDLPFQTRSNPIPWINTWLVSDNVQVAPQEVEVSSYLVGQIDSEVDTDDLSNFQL

Molecule	Kd [1] [nM]	binding result [2]
ribonucleotide reductase α2 (from UniProt P00452)	400	–
Escherichia coli class Ia ribonucleotide reductase catalytic subunit α2 (enzyme, E. coli, UniProt P00452 1-761, looked up, Ribonucleotide reductase class Ia α subunit (NrdA, protein R1), E. coli; residues about 4-737 modelled; 172-kDa homodimer; no tag is named for this preparation; The His6-tagged α2 was used only in the activity assays; also called α subunit; RNR α; source: prepared as described (Salowe et al., 1987; Salowe and Stubbe, 1986), purified) MNQNLLVTKRDGSTERINLDKIHRVLDWAAEGLHNVSISQVELRSHIQFYDGIKTSDIHETIIKAAADLISRDAPDYQYLAARLAIFHLRKKAYGQFEPPALYDHVVKMVEMGKYDNHLLEDYTEEEFKQMDTFIDHDRDMTFSYAAVKQLEGKYLVQNRVTGEIYESAQFLYILVAACLFSNYPRETRLQYVKRFYDAVSTFKISLPTPIMSGVRTPTRQFSSCVLIECGDSLDSINATSSAIVKYVSQRAGIGINAGRIRALGSPIRGGEAFHTGCIPFYKHFQTAVKSCSQGGVRGGAATLFYPMWHLEVESLLVLKNNRGVEGNRVRHMDYGVQINKLMYTRLLKGEDITLFSPSDVPGLYDAFFADQEEFERLYTKYEKDDSIRKQRVKAVELFSLMMQERASTGRIYIQNVDHCNTHSPFDPAIAPVRQSNLCLEIALPTKPLNDVNDENGEIALCTLSAFNLGAINNLDELEELAILAVRALDALLDYQDYPIPAAKRGAMGRRTLGIGVINFAYYLAKHGKRYSDGSANNLTHKTFEAIQYYLLKASNELAKEQGACPWFNETTYAKGILPIDTYKKDLDTIANEPLHYDWEALRESIKTHGLRNSTLSALMPSETSSQISNATNGIEPPRGYVSIKASKDGILRQVVPDYEHLHDAYELLWEMPGNDGYLQLVGIMQKFIDQSISANTNYDPSRFPSGKVPMQQLLKDLLTAYKFGVKTLYYQNTRDGAEDAQDDLVPSIQDDGCESGACKI	–	binds
